# Results as given in paper doi:10.1101/2022.11.09.514853 (bioRxiv, 2022).
# B1: human GluN2D, C-terminal domain truncated (M1-P879), Strep-tag II (receptor, UniProt O15399 28-879, looked up)
# chain: FPEEAPGPGGAGGPGGGLGGARPLNVALVFSGPAYAAEAARLGPAVAAAVRSPGLDVRPVALVLNGSDPRSLVLQLCDLLSGLRVHGVVFEDDSRAPAVAPILDFLSAQTSLPIVAVHGGAALVLTPKEKGSTFLQLGSSTEQQLQVIFEVLEEYDWTSFVAVTTRAPGHRAFLSYIEVLTDGSLVGWEHRGALTLDPGAGEAVLSAQLRSVSAQIRLLFCAREEAEPVFRAAEEAGLTGSGYVWFMVGPQLAGGGGSGAPGEPPLLPGGAPLPAGLFAVRSAGWRDDLARRVAAGVAVVARGAQALLRDYGFLPELGHDCRAQNRTHRGESLHRYFMNITWDNRDYSFNEDGFLVNPSLVVISLTRDRTWEVVGSWEQQTLRLKYPLWSRYGRFLQPVDDTQHLTVATLEERPFVIVEPADPISGTCIRDSVPCRSQLNRTHSPPPDAPRPEKRCCKGFCIDILKRLAHTIGFSYDLYLVTNGKHGKKIDGVWNGMIGEVFYQRADMAIGSLTINEERSEIVDFSVPFVETGISVMVARSNGTVSPSAFLEPYSPAVWVMMFVMCLTVVAVTVFIFEYLSPVGYNRSLATGKRPGGSTFTIGKSIWLLWALVFNNSVPVENPRGTTSKIMVLVWAFFAVIFLASYTANLAAFMIQEEYVDTVSGLSDRKFQRPQEQYPPLKFGTVPNGSTEKNIRSNYPDMHSYMVRYNQPRVEEALTQLKAGKLDAFIYDAAVLNYMARKDEGCKLVTIGSGKVFATTGYGIALHKGSRWKRPIDLALLQFLGDDEIEMLERLWLSGICHNDKIEVMSSKLDIDNMAGVFYMLLVAMGLSLLVFAWEHLVYWRLRHCLGP
# Target: the molecule itself
# Test: cryo-EM structure
protein,measurement,value
B1,binding result,binds
